According to paper PMC6963987:

Key:
Assay in all cases: SPR; Fcγ receptors immobilised, trastuzumab glycan variants as analyte; Biacore T200; relative binding (%) normalised with trastuzumab starting material; n = 3; procedure in ref. 54
FcγRIIIa F158 = FcγRIIIa F158 (UniProt P08637)
FcγRIIIa V158 = target: FcγRIIIa V158
FcγRIIa R131 = target: FcγRIIa R131
FcγRIIb/c = FcγRIIb/c (UniProt P31994)
Chain of UniProt P31994 (P31994 43-217): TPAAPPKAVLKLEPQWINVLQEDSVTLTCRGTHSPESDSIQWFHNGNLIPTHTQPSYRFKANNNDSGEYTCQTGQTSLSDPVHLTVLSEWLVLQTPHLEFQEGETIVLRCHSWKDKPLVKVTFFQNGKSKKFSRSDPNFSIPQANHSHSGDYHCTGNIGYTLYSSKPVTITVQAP

Which results are given for “Trastuzumab hyper-galactosylated variant G2F (antibody)”?
relative binding (% of trastuzumab starting material) (FcγRIIIa F158): 124%; relative binding (% of trastuzumab starting material) (FcγRIIIa V158): 120%

“Trastuzumab α-2,3-sialylated variant G2S2F ST3 (antibody)” was tested. Which relative binding (% of trastuzumab starting material) (FcγRIIIa F158) did it give?
Its relative binding (% of trastuzumab starting material) is 62%.

How did the relative binding (% of trastuzumab starting material) (FcγRIIIa F158) turn out when “Trastuzumab α-2,6-sialylated variant G2S2F ST6 (antibody)” was run?
Its relative binding (% of trastuzumab starting material) is 150%.

What about the relative binding (% of trastuzumab starting material) (FcγRIIIa V158) of the same substance?
Its relative binding (% of trastuzumab starting material) is 121%.

And the relative binding (% of trastuzumab starting material) (FcγRIIa R131)?
The relative binding (% of trastuzumab starting material) was 130%.

What about the relative binding (% of trastuzumab starting material) (FcγRIIb/c) of the same substance?
The relative binding (% of trastuzumab starting material) was 162%.
